Experimental data: publication PMC4355285
Read-outs that look alike come from different tables or passages of the source.

Legend:
human CCL18 (human) [1] = molecular target: human CCL18 (human) (UniProt P55774); test: SAXS
human CCL18 (human) [2] = molecular target: human CCL18 (human) (UniProt P55774); test: SAXS; remark: listed apart in the source

percent of the population as dimer (human CCL18 (human) [1]): 28%
percent of the population as hexamer (human CCL18 (human) [1]): 24%
percent of the population as monomer (human CCL18 (human) [1]): 48%
percent of the population as dimer (human CCL18 (human) [2]): 32%
percent of the population as monomer (human CCL18 (human) [2]): 65%
percent of the population as tetramer (human CCL18 (human) [2]): 3%
Substance: human CCL18 (from UniProt P55774 21-89) (natural protein)
